{"source": "patent US20250011823A1", "about": "“Method for preparing ultra-low molecular weight Dendrobium oligosaccharides by enzymatic hydrolysis and its application” (Zhejiang A & F University, priority 2022, published 2025)", "test": "ThDPS glycosidase activity determination (DNS method), hydrolysis of Dendrobium polysaccharides", "type": "biochemical", "conditions": "for enzymatic activity of expression product (hydrolysis of Dendrobium polysaccharides): crude supernatant of recombinant E. coli BL21 (DE3)", "procedure": "Enzymatic activity definition: the amount of enzyme that can convert 1micromole of substrate per 1 minute at 37° C. is defined as one unit of enzymatic activity (U).\nEnzymatic activity determination: ThDPS glycosidases can decompose Dendrobium polysaccharides into mannan oligosaccharides. The mannan oligosaccharide has reducibility and can undergo a certain chemical reaction with a DNS reagent under alkaline conditions to generate 3-amin-5-nitrosalicylic acid that is brownish-red under boiling conditions. The amount of reducing sugar generated can be measured with a spectrophotometer. The gradation of the color of the acid is related to the content of the reducing sugar.\nSpecific steps for enzymatic activity determination are as follows: a total reaction system is 2 mL, containing 1 mL of a Dendrobium polysaccharide solution with a concentration of 4 g/L, 200 μL of a phosphate buffer with a concentration of 200 mM, and 10 μL of an enzyme solution. 10 μL of distilled water is added to a control group, and water is replenished to a total volume of 2 mL for all reaction solutions. A mixed reaction solution is incubated at 37° C. for 30 min. After being taken out, the incubated mixed reaction solution is placed in a boiling water bath for 1 min to inactivate the enzymes. 2 mL of a DNS solution is added into each tube, and the tube is placed in the boiling water bath for 3 min, and then is rapidly cooled, and 1 mL of distilled water is added […]. The absorbance is measured at the wavelength of 540 nm to determine the enzymatic activity.\nThe recombinant bacteria constructed in step 1 were inoculated into a test tube containing 5 mL of LB medium (containing 100 ug/mL ampicillin), and underwent shake-flask culture at 37° C. and 200 r/min for 16 h. As a seed solution, the cultured bacterial solution was transferred into 100 mL of LB liquid medium (containing 100 ug/mL ampicillin) with an inoculum size of 1%, and underwent shake-flask culture at 37° C. and 200 rpm until OD600 was 0.6. 0.1 mM of IPTG was added to induce expression, and shaking culture was carried out for 24 h at 37° C. and 200 rpm. The obtained fermentation broth was centrifuged at 8000×g and 4° C. for 10 min, the supernatant was removed, and bacterial cells were collected. The bacterial cells were resuspended with 8 mL of 50 mM PBS of pH=7.0. After ultrasonic crushing, centrifugation was carried out for 10 min at 4° C. and 12000×g, precipitates were removed, the supernatant was collected for the hydrolysis reaction of Dendrobium polysaccharides, and hydrolysis products were detected by using a DNS method.\nBy taking Dendrobium polysaccharides as a substrate, the enzymatic property of ThDPS was characterized. • 1. 0.2 g, 0.4 g, 0.8 g, 1.2 g, 1.6 g, 2.0 g, 2.4 g, and 3 g of Dendrobium polysaccharides were (Mw>100000 Da) weighed and dissolved in 1 L of distilled water to prepare Dendrobium polysaccharide solutions, and then 20 μL of an enzyme solution was added and reacted at 37° C. for 30 min. The enzyme solution was an enzyme solution of ThDPS prepared in Example 2 diluted with deionized water to a concentration of 100 μg/mL. […] Optimum temperature determination: 10 g/L Dendrobium polysaccharides were formulated as a reaction substrate. To a reaction system was added 0.4 mL of Dendrobium polysaccharides with a final concentration of 2 g/L, 200 μL of a 500 mM Tris-HCl buffer, and 20 μl of an enzyme solution (providing 10 U of catalytic activity), and 20 μl of distilled water was added to a control group. The water was replenished to a total volume of 2 mL for all reaction solutions. After fair mixing, the mixtures were placed in water baths at 20° C., 30° C., 40° C., 50° C., […], 70° C., 80° C., and […] and incubated for 30 min. The enzyme solution was an enzyme solution of ThDPS prepared in Example 2 diluted with deionized water to a concentration of 100 μg/mL. […]", "data": [{"molecule": "THGH: T. halotolerans-derived glycosidase expressed in E. coli from the non-optimized gene SEQ ID NO.1 (protein, Thermobifida halotolerans) MRKRLTVAAATILALLASVFVFAQPANAATGFYVDNGRLYEAGGQEFVIRGVSHPHAWYAQETDSFAGIKSHGANTVRVVLSNGVRWTKNDAADVANVISLCKQNRLICMLEVHDTTGYGEQSGASTLDQAVDYWIEIQSALEGQEDYVLINIGNEPYGNDSATVADWASDTSAAIQRMRDAGFDHTLVVDAPNWGQDWSHTMRDNAGSVYTSDPTGNTVFSIHMYGVYEQGSTVTSYLEHFVNAGLPIMIGEFGHDHSDGNPDEDTIMAEAERLGLGYIGWSWSGNGGGVEYLDMVNNFDADSLTSWGQRIFYGANGISSTAEEATVYGGGAPTDPPTDPPAEGDCSADYTTVGSWGGGFQGEVTVTAGDSAISNWTVSWTFPGGQSVSHGWNASFGGGSPVTASNAPYNGQLGAGQSTTFGFIGSGSAPGSLTLTCTTD", "values": [{"measurement": "enzymatic activity of expression product (hydrolysis of Dendrobium polysaccharides)", "setting": "DNS method", "value": 68, "unit": "U/OD bacterial cells"}, {"measurement": "hydrolysis activity on the Dendrobium polysaccharides (in words)", "setting": "expression products of recombinant E. coli, DNS method, FIG. 1", "value": "significant hydrolysis activity"}]}, {"molecule": "ThDPS: T. halotolerans-derived glycosidase (SEQ ID NO.3) expressed in E. coli from codon-optimized gene SEQ ID NO.2, with 6× His-tag (protein, 6xHis tag; Thermobifida halotolerans) MRKRLTVAAATILALLASVFVFAQPANAATGFYVDNGRLYEAGGQEFVIRGVSHPHAWYAQETDSFAGIKSHGANTVRVVLSNGVRWTKNDAADVANVISLCKQNRLICMLEVHDTTGYGEQSGASTLDQAVDYWIEIQSALEGQEDYVLINIGNEPYGNDSATVADWASDTSAAIQRMRDAGFDHTLVVDAPNWGQDWSHTMRDNAGSVYTSDPTGNTVFSIHMYGVYEQGSTVTSYLEHFVNAGLPIMIGEFGHDHSDGNPDEDTIMAEAERLGLGYIGWSWSGNGGGVEYLDMVNNFDADSLTSWGQRIFYGANGISSTAEEATVYGGGAPTDPPTDPPAEGDCSADYTTVGSWGGGFQGEVTVTAGDSAISNWTVSWTFPGGQSVSHGWNASFGGGSPVTASNAPYNGQLGAGQSTTFGFIGSGSAPGSLTLTCTTD", "values": [{"measurement": "pH of maximum activity", "setting": "50 mM phosphate buffer, 37° C., 30 min", "value": 7.0}, {"measurement": "optimal reaction temperature", "setting": "2 g/L Dendrobium polysaccharides, Tris-HCl buffer, 30 min, 20-90° C.", "value": 60, "unit": "°C"}, {"measurement": "substrate inhibition (in words)", "setting": "Dendrobium polysaccharide 0.2 g/L to 3 g/L", "value": "no significant substrate inhibition"}, {"measurement": "increase of expression enzymatic activity level versus THGH without codon optimization", "setting": "codon-optimized sequence, E. coli BL21 (DE3)", "value": 2.75, "unit": "times"}, {"measurement": "enzymatic activity of expression product (hydrolysis of Dendrobium polysaccharides)", "setting": "DNS method", "value": 187, "unit": "U/OD bacterial cells"}, {"measurement": "relative activity (percentage of maximum activity)", "setting": "range of pH 6.0 to 10.0", "value": "more than 90%"}, {"measurement": "specific enzymatic activity", "setting": "substrate concentration 2.4 g/L, 37° C., 30 min", "value": 5100, "unit": "U/mg"}, {"measurement": "relative activity (percentage of maximum activity)", "setting": "temperature between 40° C. and 60° C.", "value": "≥ 85", "unit": "%"}]}]}
